Laboratory results reported in US20150299301A1 (published 2015).

Molecular target: T1, mouse serum albumin (mouse, UniProt P07724 25-608)
T1 construct: also called MSA; mouse albumin
Assay: phage on blotted plasma (1/10)
Description: A SDS-PAGE was run for plasma (1/10 dilution) from different species (baboon, pig, hamster, human, rat. mouse and rabbit) and blotted on a nitrocellulose membrane. Phages were prepared for clones MSA 21. […] Phages were allowed to bind to the nitrocellulose blotted serum albumins and unbound phages were washed away. Binding was detected with a anti-M13 polyclonal antibody coupled to HRP. DAP was used as a substrate for detection.

T1 sequence (P07724 25-608 limits assumed): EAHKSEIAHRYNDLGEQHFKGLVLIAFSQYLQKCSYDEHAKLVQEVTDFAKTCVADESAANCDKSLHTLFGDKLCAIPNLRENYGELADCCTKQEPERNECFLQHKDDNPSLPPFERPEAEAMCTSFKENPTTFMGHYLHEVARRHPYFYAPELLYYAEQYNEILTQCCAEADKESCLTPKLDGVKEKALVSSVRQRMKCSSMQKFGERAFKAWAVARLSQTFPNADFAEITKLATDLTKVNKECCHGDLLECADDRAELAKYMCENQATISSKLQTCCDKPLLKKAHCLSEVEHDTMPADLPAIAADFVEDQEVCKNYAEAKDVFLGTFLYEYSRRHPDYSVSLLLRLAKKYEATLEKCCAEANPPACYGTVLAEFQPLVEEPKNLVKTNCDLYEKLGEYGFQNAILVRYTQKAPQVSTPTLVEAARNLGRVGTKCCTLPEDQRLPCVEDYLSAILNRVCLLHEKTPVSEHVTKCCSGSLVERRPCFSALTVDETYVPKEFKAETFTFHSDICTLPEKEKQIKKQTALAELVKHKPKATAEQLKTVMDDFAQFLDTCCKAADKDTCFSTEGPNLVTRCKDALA

B1: MSA24 (VHH)
VHH: QVQLQESGGGLVQPGNSLRLSCAASGFTFRNFGMSWVRQAPGKEPEWVSSISGSGSNTIYADSVKDRFTISRDNAKSTLYLQMNSLKPEDTAVYYCTIGGSLSRSSQGTQVTVSS
  binding result: binds
